Test results taken from the nanobody polyreactivity screen of Harvey et al. (2022).

Assay: yeast display, Sf9 membrane polyspecificity reagent, FACS + sequencing; frameworks hold sequencing errors
Outline: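 A nanobody's polyreactivity label depends on the gate it was sorted from. Yeast display cells were stained with 10% biotinylated, detergent-solubilized Sf9 membrane reagent for 1 hour at 4 °C, enriched on streptavidin microbeads and sorted by FACS. The low and high (top ~1%) gates were set on anti-HA fluorescence for expression and streptavidin fluorescence for reagent binding.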

Sequence | polyreactivity (PSR sort gate)
HGQLVESAAGLVQAGGSLRLSGAASGLIFYDNMGWYRQAPAKDRELVAAISSSGGSTSYADSVKGRFTISRDNAKNTFYLQMNSLKPEDTAVYYCAADSYPAYLGFVGFDYWGLGTQVTVSS | low polyreactivity
HGQLVESGGGLVQAGGSLRLSCAASGSHLSNYAMGWYREAPGKERELVAAISLSVGSTYYADSVKGRFTISRDNAKNTVYLQMNSLKPEDTAVYYCAADDFYSGPFRGDYWGQGTQVTVSS | low polyreactivity
HLHLPERVGGLVHAGGSLRLSSAASGYISWAGYMGWYRQPPGKERELVATISYGTSTSYADSVKGRFTISRDNAKNSVYLQMNSLKPEDSAVYYCNADWVFTWYDYPNDKYDYWGQGTQVTVSS | low polyreactivity
HVKLVESGGGLVQAGGCLRLSCAASGSNFFHNAMGWYRQAPGKERELVATISWRSASTYYADSVKGRFTISRDNAKKTVYLQMNSLKPEDTAVYYCAAKLHYRQYYYRYGYDYWGQGTQVTVSS | high polyreactivity
HVPLVESGGGLVQAGGSLRLSCAASGFTFRANGMGWYRQAPGKERELVATIPSGGTTNYADSVKGRFTISRDNAKKTVYLQMNSLKPEDNAVYDCAASLGANGFQGRMYYWGQGTQVTVSS | low polyreactivity
HVQHVESGGGLVQAGGSLRLSCAASGLIFGVNAMGWYRQAPGKERELVATITSGTSTYYADSVKGRFTISRDNAKNTVYLQMNSLKPEDNAVSYCAVRNGDSWYYYWGQGTQVTVSS | low polyreactivity
HVQHVESGGGLVQAGGSLRVSCAASGSTFYYNAMGWYRQAPGKERELVARISRSGASTYYADSVKGRFTISRDIAKNSVYLQMNSLKPEDTAVYYCATRNLGHERWYYYWGQGTQVTVSS | high polyreactivity
HVQLEESGGGLVQAGGSLRLSFAASGSIRKYYAMGSYIQAPAKERELDAAISGSGSTTYYADSVKGRFTISRDNAKNTVYLELNSLKPEDTAVYYCAAVYAFGNRYAYGSDSWGQGTQVTVSS | low polyreactivity
HVQLEESGVGLVQAGGSLRVSCAASGSTFGYYRMGGYRQAPGKERELVAAISWRGGSTYYADSVKGRFTISRDNAMNTVYCQMNSLKPEDTAVYYCAAPVGNYGSIDYWGQVTQVTVSS | low polyreactivity
HVQLQESGGGLVQAGGSLRLSCAASGNISYSRNMGWYRQAPGKERELVAAIDRGAITYYADSVKGRFTISRDNATNTVYLQIYSLKPEDTAVYYCAAEYHDRWDHRYWGQGTQVTVSS | high polyreactivity
HVQLQESGGGLVQAGGSLRLSCAASGSIFQATYMGWYRQAPGKEREFVASITYGSITNYADSVKGRFTIGRDNPKDTLYLQMNSLKPEDTAVYYCAVDRHYIPAFHYWGQGTQVTVSS | low polyreactivity
HVQLQESGGGLVQAGGSLRLSCAASGSISRNYDMGWYRQAPGKEREFVAGISGGAITYYADSVKGRFTISRDNAKNTVYLQMNSLKPEDTAVYYCAADTGVYQYHSYWGQGTQVTVSS | low polyreactivity
HVQLVESGAGLVQAGGSLRLSCAASGSIFGFYAMGWYRQAPGKERELVAAISSSGDSTYADSVKGRFTISRDNAKNTVYLQMNSLKPEDTAVYYCAADEDSRNWGQGTQVTVSS | high polyreactivity
HVQLVESGGGLFQAGGSLRLICAASGSTFGFYAMGWYRQAPGKERELVAAISRRTGSTYYADSVKGRFTISRDNAKNTVYLQMNSLKPEDTAVYYCNTDQSQKTVGYDYWGQGTQVTVSS | high polyreactivity
HVQLVESGGGLVQAGASLRLSCAASGRTFGRYAMGWSRQAPGKERELVAAIRSGGSTYYADSVKGRFTISRDNAKNTVYLQMNSLNPEDPAVYYCAADIARHLTGFAYDRLDYCGQGTQVTVSS | low polyreactivity
HVQLVESGGGLVQAGGSLRLICAASGGTFAGYSMGWYRQAPGKDRELVAAITYRSSTTYYADSVKGRFTISRDNAKNTVYLQMNSLKPEDTAVYYCAARTRGTGRNLDYWGQGTQVNVSS | high polyreactivity
HVQLVESGGGLVQAGGSLRLRCAASGFTIRSYVMGWYRQAPGKERELVAAIRRSGGSTYYADSVKGRFTISRDNAKNTVYLQMNSLKPEDTAVYYCNTVSGYGQPRGDYWGQGTQVTVSS | high polyreactivity
HVQLVESGGGLVQAGGSLRLSCAASGFTFPANAMGWYRQAPGKERELVAAISSSGGTYYADSVMGRFTISRDNAKNTVYLQMTSLKQEDTAVYYCAAYRFKYYYWGQGTQVSVSS | high polyreactivity
HVQLVESGGGLVQAGGSLRLSCAASGGIFVYYAMGWYRQAPGKVRELVAAISRSAASTYYADSVKGRFTISRDNAKNTVYLQMNSLKPEDTADYYCAAGQLTDKGGGDSWGQGTQVTVSS | low polyreactivity
HVQLVESGGGLVQAGGSLRLSCAASGIIFQRNAMGWYRQAPGKERELVAPISYSDGSTYYADSVKGRFTISRDNAKNTVYLQMNSLKPEDTAVYYCAARRFGRLALYFRFDYWGQGTQVTVSS | low polyreactivity
HVQLVESGGGLVQAGGSLRLSCAASGITFYDNVMGWYRQAAGKERELVAAITDSGGSTYYADSVKGRFTISRDNEKNTDYLQMNSLNPEDTAVYYCNAEVNAHWWWYIEDYWGQGTQVTVSS | low polyreactivity
HVQLVESGGGLVQAGGSLRLSCAASGPTFVTNAKGWYRQAPGKERELVAAISRSGGHTYYADSVKGRFTISRDIAKNTVYLQMNSLKPEDTAVYYCAKNRGPRTLYDYWGQGTQVTVSS | high polyreactivity

Sequence | polyreactivity (PSR sort gate)
HVQLVESGGGLVQAGGSLRLSCAASGRIFASYPMGWYRPAPGNERELVAAISLSGGSTYYADSVKGRFTISRDNAKNTVYLQMNSLKPEDTAVYYCAAKNYRRYRDYYWGQGTQVTVSS | high polyreactivity
HVQLVESGGGLVQAGGSLRLSCAASGRIFRYAMAWYRQAPGNETELVAAISSSGGGTYYADSVKGRFTISRDNAKNTVNLQMNSLKREDTAVYYCIAEYGWRFDYWGQGTQVTVSS | high polyreactivity
HVQLVESGGGLVQAGGSLRLSCAASGRILHLNAMGWYRQAPGKERELVAAITRSGSSTYYADSVKGRFTISRDNAKNTVYLQMNSLKAEDTAVYYCAADWYPHSSAYDYWGQGTQVTVSS | low polyreactivity
HVQLVESGGGLVQAGGSLRLSCAASGSICSWYGMGWYRQAPGKERELVAAITWTGGSTYYADSVKGRFTISRDNAKNTVYLQMNSLKQEDTAVYYCSADLRYVGFYYWGQGTQVTVSS | high polyreactivity
HVQLVESGGGLVQAGGSLRLSCAASGSIFDTYAMGWYRQAPGKERELVAAINFSDGDTYYADSVKGRFTSSRDNSKNTVYLQLNSLKPEDTAVYDCAAEVWDPPEYYDEYDYWGQGTQVTVSS | low polyreactivity
HVQLVESGGGLVQAGGSLRLSCAASGSIFIIYAMGWYRQAPGKERELVAAMDWSDGSTYYADSVKGRFTISRDNANNTVYLQMNSLKPEDTAVYYCNTQSRTLGWPLDYWGQGTQVTVSS | high polyreactivity
HVQLVESGGGLVQAGGSLRLSCAASGSIFVVYAMGWYRQAPGKERELVASIRTGGSTNYADSVKGRYTISRDNAKNTVYLQMNSLKPEDTAVYYCAAASWNSNRHYYVARYYYWGQGTQVTVSS | high polyreactivity
HVQLVESGGGLVQAGGSLRLSCAASGSIFVYNAMGWFRPAPGKERELVAGITFIGGSTYYADSVKGRFTISRDNAKNTVYLHMNSLKPVDNAVSYCATQEDWEDDWGQGTKVTVSS | low polyreactivity
HVQLVESGGGLVQAGGSLRLSCAASGSTVRRYAMGWYRQAPGKEREFVASITWRGGGTYYADSVKGRFTISRDNAKNTVYLQMNSLKPEETAVYYCASATQVRGHSLPYGYWGQGTQVTVSS | high polyreactivity
HVQLVESGGGLVQAGGSLRLSCAATGRIFWLYAMGWYRQAPGKERELVAAISSGGSTSYADSVKGRFTISRDNAKNTVYVQMNSLKPEDTAVYYCNATLLFPQLDGPESGEFDYWGQGTQRTVSS | low polyreactivity
HVQLVESGGGLVQAGGSLRLSCDASGRTFYRYVIGWYRQAPGKERELVAAISKSDGSSYYADSVKGRFTISRDNAKNTVYLQMNSLKPEDTAVYYCAAQYPTFYSPRPFNYWGQGTQVTVSS | high polyreactivity
HVQLVESGGGLVQAGGSLRLSCPASGRTFADNAMGWYRQAPGKERELVASISSGTSTNYADSVKGRFTISRDNAQNTVYVQMNSLKPEDTAVYYCNADGPIWYTAVLGVGRYYGWTDYWGQGTQVTVSS | low polyreactivity
HVQLVESGGGLVQAGGSLRVSCAASGRIFYYCARGWYGQAPGKEWELVAAITWSGGSTYYADSLMGRFTISRDNANNTVYVHKNSLKPEDPAVAYCTKSAAITGNGQMDYWGQCTQVTVSS | low polyreactivity
HVQLVESGGRLVQAGGSLRLSSAASGLNFYYYAIGWSRQAPGKERELVAAISRRGGSTYYADSVKGRFTISRDNAKNTVYLQMNSLKPEVTEVYYCAAKSGSFVHGGYQTPVYGSDYWGQGTQVTVSS | high polyreactivity
HVQLVESVGGLVQAGGSLRLRCAASGSIFYRNAMGWYRKAPGKERELVAAISSDGSTNYADSVKGRFTISRDNAKNSVYFQMNSLKPEDTAVYYCAAPWTQILDYWGQGTQVTVSS | low polyreactivity
HVQLVESVGGLVQAGGSLRLSCAASGRILGDNVMGWYRQAPGKERELVAAISSGSGSTYYADSVKGRFTISRDNAKNTVYLQMNSLKPEDTAVYYCAAGPYIYPRYDYWGQGTQVTVSS | low polyreactivity
HVQLVETGGGIVQAGGSLRLSCAASGFIFRYYARGWYRPSHGKETELVAAIDYSGGSTNYADSVKGRFTISRDYAKNTVSLQMNSLKPEDTAVYYCAAYLGWGYDYWGQGTQVTVSS | low polyreactivity
HVQRVESAGGLVQAGGSLRLSCADSGLIFRGNAMGWYRQAPGKVRELVATISYSGGSTYYADSVKGRFTISRENAKNTVYLQMNSLKPEDTAVYYCNRDPDPWGFQPDWYYGSYDYWGQGTQVTVSS | low polyreactivity
KVQHVESGGGLVQAGGSLRLSSAASGRISWSYAMGWYRQAPGKESELVAAITSGGTTNYAYSVKGRFTISRDNAKYTVYLQMNSLKPEDTAVYYCARDSYQLGLIRDPLEYDFWGKGTQVTVSS | low polyreactivity
KVQLVEKGGGLVQAGGSLRLSSAASGLNFTIYSMGWYRQEPGKERELVATISQGGGSTYADSVKGRFTISRDNAKNTVYLQMNSLKPEDTAVYYCNAKVVWYYLYDYWGQGTQVTVSS | low polyreactivity
KVQLVESCGGLVQAGGSLRLSCAASGFIISNYAMGWYRQAPGKERELVASISWGGGSTYYADSVKGSFTISRDNAKNTVYLQMNSLKPEDTAVYYCAAPSWDGIAYYGGYDYLGQGTQVTVSS | high polyreactivity
